In US10266566 one finds IgG yield data, which are given here for six molecules.

The target in test [1] is Human polyclonal immunoglobulin G (IgG) (human). The experiment in a line: affinity chromatography, peptide resin, 10 mg/mL hIgG in PBS; 3rd run, after alpha-chymotrypsin and then trypsin.
Test [2] shares this target. Briefly: affinity chromatography, peptide resin, 10 mg/mL hIgG in PBS; 2nd run, after resin contacted with alpha-chymotrypsin.
Test [3] shares this target. The experiment in a line: affinity chromatography, peptide on Toyopearl resin, pure human IgG load; yield = IgG eluted/IgG loaded, by Protein G chromatography.
The target is the same in test [4]. The experiment in a line: affinity chromatography, peptide resin, 10 mg/mL hIgG in PBS; 1st run, before any enzyme.
Test [5] shares this target. Briefly: affinity chromatography of Cohn fraction II+III on peptide resin; binding buffer PBS + 0M NaCl.
Test [6] shares this target. Briefly: affinity chromatography of Cohn fraction II+III on peptide resin; binding buffer PBS + 0.25M NaCl.
For test [7] the target is unchanged. The experiment in a line: affinity chromatography of Cohn fraction II+III on peptide resin; binding buffer PBS + 0.13M NaCl.

*1 amine or outer side, *2 acyl side, *3 side chain or, on linkers, in order; H or OH if unused. Where no end group is shown, it is not given here. [ ]: non-standard residue; d: D form. Trp(For) = Nin-formyl-tryptophan, O=Cn1cc(C[C@H](N[*:1])C(=O)[*:2])c2ccccc21; Tyr(Me) = O-methyl-tyrosine, COc1ccc(C[C@H](N[*:1])C(=O)[*:2])cc1; Phe(4-CONH2) = NC(=O)c1ccc(C[C@H](N)C(=O)O)cc1; Trp(1-Me) = Cn1cc(C[C@H](N)C(=O)O)c2ccccc21; Phe(4-Me) = Cc1ccc(C[C@H](N)C(=O)O)cc1; Cit = NC(=O)NCCC[C@H](N)C(=O)O; Lys(Me) = CNCCCC[C@H](N)C(=O)O

As to H[Trp(For)][Cit]G[Trp(For)]V (not fully specified (C-terminus)) [HWForCitGWForV], the IgG yield in test [1] amounted to 69%; in test [2], 69%; in test [3] it was 75%; in test [4], 75%.

Turning to H[Phe(4-CONH2)][Cit][Cit]HL [HFCarbCitCitHL], in test [3], the IgG yield worked out at 53%.

On to H[Trp(1-Me)]RG[Trp(1-Me)]V-{Toyopearl AF‑Amino‑650M resin} [HWMetRGWMetV], for which the IgG yield in test [1] came to 82%; in test [2], 91%; in test [3], 91%; in test [4], 91%.

In the case of HW[Cit]GWV-{Toyopearl AF‑Amino‑650M resin} [HWCitGWV], the IgG yield in test [1] came to 71%; in test [2], 73%; in test [3], 91%; in test [4], 91%.

Turning to Ac-HWRGWV-{Toyopearl AF‑Amino‑650M resin} [Ac-HWRGWV], the IgG yield in test [5] was found to be 91%; in test [6] it was 83%; in test [7], 84%.

Turning to H[Tyr(Me)][Phe(4-Me)][Lys(Me)][Phe(4-Me)]D-{Toyopearl AF‑Amino‑650M resin} [HYMetFMetKMetFMetD], the IgG yield in test [3] stood at 49%.
